According to paper PMC5882713, “Sensitive colorimetric assay using insulin G-quadruplex aptamer arrays on DNA nanotubes coupled with magnetic nanoparticles”:

Molecular target: insulin (UniProt P01308;P01308 25-54;90-110)
Assay: circular dichroism; 20 uM aptamer, 100 nM insulin; G4 spectrum (min 245 nm, max 275 nm) after interaction with insulin; Binding buffer 20 mM Tris-HCl, 140 mM NaCl, 5 mM KCl, 1 mM CaCl2, 1 mM MgCl2, pH 7.4, room temperature, 40-60 min; then hemin in DMSO 1 h and TMB-H2O2; random N30 control is a pool and not listed
Conditions: protein: commercial, copies: 1;1, label: 5' biotin

Sequence of insulin (P01308 25-54, chain 1 of 2): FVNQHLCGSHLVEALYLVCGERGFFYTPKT
Sequence of insulin (P01308 90-110, chain 2 of 2): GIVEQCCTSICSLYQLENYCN

**Q.** Does GGTGGTGGGGGGGGTTGGTAGGGTGTCTTC (structured_DNA) [G-quadruplex insulin aptamer (G-rich aptamer)] bind?
**A.** Result: binds
